Assay results taken from patent publication US20240210401A1, “METHOD OF USING PACAP AND VIP PEPTIDES FOR DETECTING SHED OR CIRCULATING TUMOR CELLS IN BIOLOGICAL FLUIDS” (Thomas Jefferson University, priority 2013, published 2024).

Target: T1, VPAC1 receptors expressed on the cell membrane of prostate cancer cells (Homo sapiens, UniProt P32241)
T1 construct: VPAC1 receptors expressed on the cell membrane of prostate cancer cells; endogenous in cells; host or cells: prostate cancer cells cytospun from patients' urine
T1 sequence (P32241 31-457): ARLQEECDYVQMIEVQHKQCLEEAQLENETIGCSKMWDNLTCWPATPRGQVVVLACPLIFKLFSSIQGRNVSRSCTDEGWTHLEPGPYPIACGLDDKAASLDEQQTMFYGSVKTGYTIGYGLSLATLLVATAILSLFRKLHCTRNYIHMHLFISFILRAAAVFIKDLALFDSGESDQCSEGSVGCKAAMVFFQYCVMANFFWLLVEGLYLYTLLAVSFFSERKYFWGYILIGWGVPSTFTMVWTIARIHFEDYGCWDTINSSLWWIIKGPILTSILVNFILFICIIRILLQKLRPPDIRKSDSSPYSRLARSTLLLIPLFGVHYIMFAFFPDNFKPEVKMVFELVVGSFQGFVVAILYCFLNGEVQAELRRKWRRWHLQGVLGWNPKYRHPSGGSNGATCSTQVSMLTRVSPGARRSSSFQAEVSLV
Assay: Confocal imaging of cells from urine samples of prostate cancer patients
Type: cell-based
Source text: The PACAP peptide, […]γAba-Lys (R) (SEQ ID NO: 7), was synthesized on a Wang resin using an ABI 341A peptide synthesizer (Applied Biosystems, Foster City, CA). The 27-amino acid long PACAP sequence was then assembled by standard Fmoc chemistry and coupled with a free sulfhydryl group attached to the C-terminus. This C-terminal sulfhydryl group was then reacted with a maleimide functionalized NIR dye to yield TP4303.
Urine samples from two patients, one with early phase prostate cancer and the other with advanced prostate cancer, were cytospinned, and cells were collected on glass slides. The cells were incubated with TP4303, washed with phosphate-buffered saline (PBS) and the slide was dried. The cells were treated with DAPI (4′,6-diamidino-2-phenylindole, a fluorescent stain that binds strongly to A-T rich regions in cellular DNA), a cover slip was placed on the sample and confocal microscopic analysis was performed (excitation, […]; emission, […]).

interaction with epithelial cells (epithelial cells in the urine samples, identified by DAPI, not expressing VPAC1): did not interact
interaction with sperm (sperm in the urine sample, identified by DAPI, not expressing VPAC1): did not interact
binding to VPAC1 receptors on prostate cancer cells (urine of two patients (early phase and advanced prostate cancer), confocal microscopy): bound
Substance: His-Ser-Asp-Gly-Ile-Phe-Thr-Asp-Ser-Tyr-Ser-Arg-Tyr-Arg-Lys-Gln-Met-Ala-Val-Lys-Lys-Tyr-Leu-Ala-Ala-Val-Leu-γAba-Lys (R) (SEQ ID NO: 7) (HSDGIFTDSYSRYRKQMAVKKYLAAVLEK; maleimide NIR dye conjugated via C-terminal sulfhydryl; MOD_RES 28 4Abu) [TP4303, PACAP peptide with C-terminal sulfhydryl group reacted with a maleimide functionalized NIR dye]
